# Test results reported in article PMC12617493 (Science Advances, 2025).
# Positions count from the first letter of the chain named.
# B1: Osh6 (natural protein, S. cerevisiae, UniProt Q02201 1-448, looked up)
# chain: MGSKKLTVGSDSHRLSKSSFSSNKSSHSATKDQPIDTDDIDEDDESGHNIILNIISQLRPGCDLTRITLPTFILEKKSMLERVTNQLQFPEFLLQAHSEKDPLKRFLYVMKWYLAGWHIAPKAVKKPLNPVLGEYFTAYWDLPNKQQAYYISEQTSHHPPECAYFYMIPESSIRVDGVVIPKSRFLGNSSAAMMDGSTVLQFLDIKDGNGKPEKYVLTQPNVYVRGILFGKMRIELGDHMIIKSPNFQADIEFKTKGYVFGTYDAIEGTVKDYDGNAYYEISGKWNDVMYLKDLKQPRSSPKVFLDTHKESPLRPKVRPLSEQGEYESRKLWKKVTDALAVRNHPVATEEKFQIEDHQRQLAKKRIEDGVEFHPKLFRRSKPGEDLDYCIYKNIPVDEDPEKQIRSILQIAPILPGQQFTDKFFIPAFEKIKSQKKMIENEKQNPAKQ
# B2: Osh6(HH/AA)-3M (natural protein, S. cerevisiae, UniProt Q02201 1-448, looked up)
# chain: B1 chain with H157A, H158A, E170A, Q417A, T420I
# B3: CIst2[590–946] (domain or fragment, S. cerevisiae)
# chain: CSSHDDVANGIVPKHVVNVQNPPKQEVFEKIPSPEFNSNNEKELVQRKGSANEKLHQELGEKQPASSANGYEAHAATHANNDPSSLSSASSPSLSSSSSSSKTGVVKAVDNDTAGSAGKKPLATESTEKRNSLVKVPTVGSYGVAGATLPETIPTSKNYYLRFDEDGKSIRDAKSSAESSNATNNNTLGTESKLLPDGDAVDALSRKIDQIPKIAVTGGENNENTQAKDDAATKTPLIKDANIKPVVNAAVNDNQSKVSVATEQTKKTEVSTKNGPSRSISTKETKDSARPSNNNTTTTTTTDATQPHHHHHHHRHRDAGVKNVTNNSKTTESSSSSSAAKEKPKHKKGLLHKLKKKL
# modifications: N-terminal cysteine covalently attached to MPB-PE of liposomes (in the experiments with MPB-PE–containing liposomes)
# notes: extra N-terminal cysteine; With PM-like liposomes it is held by its C-terminal polybasic motif, not covalently; also called Ist2 IDR with an extra N-terminal cysteine; source: E. coli BL21-GOLD(DE3), purified (Glutathione Sepharose 4B, thrombin cleavage, Sephacryl S-200 HR); not shown: GST, N-terminal, cleaved
# B4: GST-Ist2[590–946] (domain or fragment, S. cerevisiae, UniProt P38250 590-946, looked up)
# chain: SSHDDVANGIVPKHVVNVQNPPKQEVFEKIPSPEFNSNNEKELVQRKGSANEKLHQELGEKQPASSANGYEAHAATHANNDPSSLSSASSPSLSSSSSSSKTGVVKAVDNDTAGSAGKKPLATESTEKRNSLVKVPTVGSYGVAGATLPETIPTSKNYYLRFDEDGKSIRDAKSSAESSNATNNNTLGTESKLLPDGDAVDALSRKIDQIPKIAVTGGENNENTQAKDDAATKTPLIKDANIKPVVNAAVNDNQSKVSVATEQTKKTEVSTKNGPSRSISTKETKDSARPSNNNTTTTTTTDATQPHHHHHHHRHRDAGVKNVTNNSKTTESSSSSSAAKEKPKHKKGLLHKLKKKL
# notes: also called Ist2 IDR; full-length Ist2 IDR; source: E. coli BL21-GOLD(DE3), purified (Glutathione Sepharose 4B, eluted with glutathione); not shown: GST, N-terminal, kept
# Tests used:
# CIst2[590–946] [1] = target: B3
# CIst2[590–946] [2] = target: B3; experiment: cell-based or functional assay
# Osh6 = target: B1; experiment: liposome flotation assay; Osh6 (0.75 μM) with or without an equivalent amount of CIst2[590–946] and PM-like liposomes POPC/POPS/PI(4,5)P2/NBD-PE (65:30:5:0.1); sucrose gradient, top fraction by SDS-PAGE; settings: both partners purified
# Osh6(H157A/H158A) = target: T1, Osh6(H157A/H158A) (S. cerevisiae, UniProt Q02201 1-448, H157A | H158A); experiment: pull-down; GST constructs (2.5 μM) immobilised on Glutathione Sepharose 4B beads; Osh6, its mutants, Osh4, ORD^Osh3 or ORD^ORP8 added at 2.5 μM; 50 mM tris pH 7.4, 120 mM NaCl, 1 mM MgCl2, 1% TX-100, 1 mM DTT, 10% glycerol; 25°C, 1 hour; bound fraction by SDS-PAGE; settings: both partners purified
# T1 construct: also called Osh6(HH/AA)
# T1 sequence (looked up): B1 chain with H157A, H158A
molecule,measurement,setting,value
ORD^ORP8 (H514A/H515A) (domain or fragment),"Ist2-dependent (ER→PM)/(ER→O) NBD-PS transfer rate ratio R (Ist2), three liposome populations, LER and LPM connected by CIst2[590–946], FRET, 30°C",CIst2[590–946] [1],1
B1,"Ist2-dependent (ER→PM)/(ER→O) NBD-PS transfer rate ratio R_(Ist2), three liposome populations, LER and LPM connected by CIst2[590–946], FRET, 30°C",CIst2[590–946] [2],7.6
B2,"Ist2-dependent (ER→PM)/(ER→O) NBD-PS transfer rate ratio R_(Ist2), three liposome populations, LER and LPM connected by CIst2[590–946], FRET",CIst2[590–946] [2],~1
B3,binding result,Osh6,binds
B4,binding result,Osh6(H157A/H158A),binds
